# B1: FLAG-tagged human caspase-4 (C258S) protease-deficient mutant (natural protein, UniProt P49662 1-377, looked up)
# chain: MAEGNHRKKPLKVLESLGKDFLTGVLDNLVEQNVLNWKEEEKKKYYDAKTEDKVRVMADSMQEKQRMAGQMLLQTFFNIDQISPNKKAHPNMEAGPPESGESTDALKLCPHEEFLRLCKERAEEIYPIKERNNRTRLALIICNTEFDHLPPRNGADFDITGMKELLEGLDYSVDVEENLTARDMESALRAFATRPEHKSSDSTFLVLMSHGILEGICGTVHDEKKPDVLLYDTIFQIFNNRNCLSLKDKPKVIIVQASRGANRGELWVRDSPASLEVASSQSSENLEEDAVYKTHVEKDFIAFCSSTPHNVSWRDSTMGSIFITQLITCFQKYSWCCHLEEVFRKVQQSFETPRAKAQMPTIERLSMTRYFYLFPGN
# notes: human caspase-4 with the protease-deficient mutation C258S; also called Casp4C258S; source: 293T, transfected, in lysate
# Target: the molecule itself
# Experiment: native gel or EMSA; blue native PAGE (3-12%) and immunoblot; purified caspase-4 (C258S) incubated with or without oxidized GPx8 30 min at 4°C, then with different amounts of LPS 30 min at 37°C; LPS-induced oligomerization
protein,measurement,value
B1,binding result,binds

# Source: article PMC6949489, “Glutathione peroxidase 8 negatively regulates caspase‐4/11 to protect against colitis” (EMBO Molecular Medicine, 2019)
